Source: patent US20260116996A1 (REGENTS OF THE UNIVERSITY OF MINNESOTA, published 2026)

T1: human serpinB1 (human, UniProt P30740 1-379)
T1 construct: Luminex antigen captured from a 293 cell lysate; not shown: V5-His tag of the pcDNA3.1 Directional V5-His-TOPO vector
T1 sequence (looked up): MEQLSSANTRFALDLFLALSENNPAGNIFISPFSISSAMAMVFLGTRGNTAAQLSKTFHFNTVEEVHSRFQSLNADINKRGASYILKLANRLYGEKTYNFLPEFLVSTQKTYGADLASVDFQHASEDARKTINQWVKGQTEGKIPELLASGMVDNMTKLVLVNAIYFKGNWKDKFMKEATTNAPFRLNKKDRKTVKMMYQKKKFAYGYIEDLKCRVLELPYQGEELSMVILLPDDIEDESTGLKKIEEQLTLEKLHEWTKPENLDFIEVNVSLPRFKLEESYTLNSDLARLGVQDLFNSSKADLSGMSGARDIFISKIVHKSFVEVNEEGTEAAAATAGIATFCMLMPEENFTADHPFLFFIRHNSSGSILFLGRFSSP

T2: human serpinB9 (human, UniProt P50453 1-376)
T2 construct: Luminex antigen captured from a 293 cell lysate; not shown: V5-His tag of the pcDNA3.1 Directional V5-His-TOPO vector
T2 sequence (looked up): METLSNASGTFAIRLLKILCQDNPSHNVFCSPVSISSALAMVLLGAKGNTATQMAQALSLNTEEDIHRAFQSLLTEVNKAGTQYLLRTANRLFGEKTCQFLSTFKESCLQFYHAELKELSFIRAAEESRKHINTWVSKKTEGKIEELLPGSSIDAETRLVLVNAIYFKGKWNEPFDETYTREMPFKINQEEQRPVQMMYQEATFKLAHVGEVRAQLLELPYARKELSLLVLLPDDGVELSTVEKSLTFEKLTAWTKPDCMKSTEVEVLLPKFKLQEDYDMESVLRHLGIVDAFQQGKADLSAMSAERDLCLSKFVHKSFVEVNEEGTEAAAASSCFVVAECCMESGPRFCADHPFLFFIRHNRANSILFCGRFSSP


Legend:
[1] = target: T1, human serpinB1; assay: Luminex bead assay, beads coated with human serpinB1, background (Gfp and Scgn beads) subtracted
Method: (§1) The latter was determined as the average antibody binding to Luminex beads coated with Gfp and Scgn control antigens. Similar data were obtained for antigen binding of Fab fragments of these antibodies (data not shown).
(§2) Luminex assay. Luminex-based technology was used to measure serpinB13 AA in human samples. Initially, the Luminex beads were precoated with serpinB13, Gfp and Scgn, using precleared lysates of 293 cells that had been transfected with individual cDNAs. Biotinylated mouse anti-human K and 2 chain mAbs (BD Biosciences) (dilution 1:300) and streptavidin (Invitrogen) (dilution 1:200) were used as secondary reagents to measure human serum binding activity to individual antigens. The data were expressed as fluorescence intensity (F.I.) due to serum binding activity in the presence of beads precoated with serpinB13 and after subtracting the average F.I. due to serum binding activity in the presence of beads precoated with control proteins, Gfp and Scgn (e.g. F.I.^B13-[F.I.^GFP+F.I.^Segn]/2). The samples were evaluated based on the level of F.I. and the degree of inhibition of binding to serpin-B13 coated beads with soluble serpinB13 (2.5 μg/mL), compared with the bovine serum albumin (BSA). […] All samples were run blind on three independent occasions. Subjects with serum samples that produced a positive results three times were considered positive. Subjects with serum samples that produced a negative result on at least one occasion were considered negative.
(§3) To determine whether anti-serpin activity is specific, binding of three human recombinant antibodies to serpinB13 was examined for potential cross-reactivity with other clade B serpins. Binding to the beads conjugated with Gfp and Scgn was used to subtract the background and the assay was developed using the same reagents as those described above for measuring serpinB13 AA in serum samples.

[2] = target: T2, human serpinB9; assay: Luminex bead assay, beads coated with human serpinB9, background (Gfp and Scgn beads) subtracted
Method: as §1, §2, §3

binding result [1] | binding result [2] | Binder
no binding (tested: 1.0 µg/mL) | no binding (tested: 1.0 µg/mL) | recombinant fully human anti-serpinB13 antibody Clone 3 (antibody, human IgG1, kappa, V domains shown, also called mAb3; CLONE3-H(m1) / CLONE3-L(m1)) VH: QVQLQQWGAGLLKPSETLSLTCAVYGGSFSGYYWSWIRQPPGKGLEWIGEINHSGSTNYNPSLKSRVTISVDTSKNQFSLKLSSVTAADTAVYYCARRYCSGGSCYLVGTGSELDYWGQGTLVTVSS VL: DIQMTQSPSTLSASVGDRVTITCRASQSISSWLAWYQQKPGKAPKLLIYKASSLEIGVPSRFSGSGYGTEFTLTISSLQPDDFATYYCLQYSTHSTFGQGTRVEIKR
no binding (tested: 1.0 µg/mL) | no binding (tested: 1.0 µg/mL) | recombinant fully human anti-serpinB13 antibody Clone 1 (antibody, human IgG1, kappa, V domains shown, also called mAb1; mAbs1) VH: QVQLQESGGGVVQPGRSLRLSCAASGFTFSSYGMHWVRQAPGKGLEWVAVISYDGSNKYYADSVKGRFTISRDNSKNTLYLQMNSLRAEDTAVYYCARDLGAVIAVAGTSTPYNWFDPWGQGTLVTVSS VL: DVVMTQSPLSLPVTPGEPASISCRSRQSLLHSNGHNYLGWYLQKPGQSPQLLIYLASIRASGIPDRFSGSGSGTDFTLKISRVEAEDVGVYYCMQALQTPYTFGQGTKLEIKR
no binding (tested: 1.0 µg/mL) | no binding (tested: 1.0 µg/mL) | recombinant fully human anti-serpinB13 antibody Clone 2 (antibody, human IgG1, kappa, V domains shown, also called mAb2; CLONE2-H(m1) / CLONE2-L(m1)) VH: QMQLVQSGGGVVRPGGSLRLSCAASGFTFDDYGMSWVRQAPGKGLEWVSGINWNGGSTGYADSVKGRFTISRDNAKNSLYLQMNSLRAEDTALYYCARESSMTTVTTYLLREVGVGLDFDYWGQGTLVTVSS VL: ETTLTQSPGTLSLSPGERATLSCRASQTVSGSYLAWYQQKPGQPPRLLIYGASSRATGIPDRFSGSGSGTDFTLTISRLEPEDFAVYYCQDYGSSRTFGQGTKVELKR
